Among the data in article PMC11723585 are chromatin-bound fraction of DR trajectories (f bound,DR) of RARα^RR-SNAP in Halo-RXRα knock-in U2OS cells and chromatin-bound fraction of PAPA trajectories (f bound,PAPA) of RARα^RR-SNAP in Halo-RXRα knock-in U2OS cells values, retold here.

The assay addresses endogenous knock-in V5-Halo-RXRα (human (endogenous in U2OS)) (UniProt P19793).
Sequence of UniProt P19793 (P19793 whole entry): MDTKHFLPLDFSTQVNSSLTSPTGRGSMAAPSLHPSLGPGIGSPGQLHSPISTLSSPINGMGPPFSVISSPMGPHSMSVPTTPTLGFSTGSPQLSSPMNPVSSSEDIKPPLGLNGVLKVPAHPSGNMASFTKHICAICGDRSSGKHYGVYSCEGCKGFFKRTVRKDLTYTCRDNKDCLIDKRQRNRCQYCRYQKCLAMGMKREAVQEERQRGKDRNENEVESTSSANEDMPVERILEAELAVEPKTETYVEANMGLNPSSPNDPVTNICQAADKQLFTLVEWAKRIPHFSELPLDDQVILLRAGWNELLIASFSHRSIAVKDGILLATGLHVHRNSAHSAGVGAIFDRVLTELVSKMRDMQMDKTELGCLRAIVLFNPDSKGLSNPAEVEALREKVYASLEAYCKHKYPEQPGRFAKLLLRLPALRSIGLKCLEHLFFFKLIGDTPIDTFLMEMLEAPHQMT

Regarding “RARα^RR-SNAPf-3xFLAG (from UniProt P10276 1-462) (natural protein)”, the chromatin-bound fraction of DR trajectories (f bound,DR) of RARα^RR-SNAP in Halo-RXRα knock-in U2OS cells is 7.5% and the chromatin-bound fraction of PAPA trajectories (f bound,PAPA) of RARα^RR-SNAP in Halo-RXRα knock-in U2OS cells was 11.1%.
